Reference: US20030157554A1 (published 2003)
Like-named read-outs stand apart in the source and are kept apart here.

T1: Fibrinogen (Genbank ID: M58569), S100A1 interactor (human, UniProt P02671 345-545, limits assumed)
T1 construct: range 345-~545; Prey from liver library found with S100A1; also called fibrinogen alpha subunit
T1 sequence (looked up): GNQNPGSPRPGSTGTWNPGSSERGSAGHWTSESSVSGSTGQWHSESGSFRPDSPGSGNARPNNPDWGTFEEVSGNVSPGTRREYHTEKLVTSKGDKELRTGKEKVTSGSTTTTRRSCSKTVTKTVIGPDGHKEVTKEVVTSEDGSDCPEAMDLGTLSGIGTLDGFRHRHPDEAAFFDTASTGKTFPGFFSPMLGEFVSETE

B1: S100B-1 (other, human, UniProt P04271 1-92, looked up)
chain: MSELEKAMVALIDVFHQYSGREGDKHKLKKSELKELINNELSHFLEEIKEQEVVDKVMETLDNDGDGECDFQEFMAFVAMVTTACHEFFEHE
notes: Full-length bait; also called full length S100B
B2: ATPase (ATP6N1) (Genbank ID: u73006) (other, human, UniProt Q93050 1-300, looked up)
chain: MGELFRSEEMTLAQLFLQSEAAYCCVSELGELGKVQFRDLNPDVNVFQRKFVNEVRRCEEMDRKLRFVEKEIRKANIPIMDTGENPEVPFPRDMIDLEANFEKIENELKEINTNQEALKRNFLELTELKFILRKTQQFFDEMADPDLLEESSSLLEPSEMGRGTPLRLGFVAGVINRERIPTFERMLWRVCRGNVFLRQAEIENPLEDPVTGDYVHKSVFIIFFQGDQLKNRVKKICEGFRASLYPCPETPQERKEMASGVNTRIDDLQMVLNQTEDHRQRVLQAAAKNIRVWFIKVRKM
notes: range 1-~300; Prey from liver library; end of the fragment approximate; also called Vacuolar-type H(+) ATPase; ATP6N17
B3: LZIP (Genbank ID: AF029674) (other, human, UniProt O43889 1-371, looked up)
chain: MELELDAGDQDLLAFLLEESGDLGTAPDEAVRAPLDWALPLSEVPSDWEVDDLLCSLLSPPASLNILSSSNPCLVHHDHTYSLPRETVSMDLESESCRKEGTQMTPQHMEELAEQEIARLVLTDEEKSLLEKEGLILPETLPLTKTEEQILKRVRRKIRNKRSAQESRRKKKVYVGGLESRVLKYTAQNMELQNKVQLLEEQNLSLLDQLRKLQAMVIEISNKTSSSSTCILVLLVSFCLLLVPAMYSSDTRGSLPAEHGVLSRQLRALPSEDPYQLELPALQSEVPKDSTHQWLDGSDCVLQAPGNTSCLLHYMPQAPSAEPPLEWPFPDLFSEPLCRGPILPLQANLTRKGGWLPTGSPSVILQDRYSG
notes: range 1-372; Prey from liver and muscle libraries; also called LIZP
B4: STAU (Genbank ID: AF061939) (other, human, UniProt O95793 6-577, looked up)
chain: VQVQNPSAALSGSQILNKNQSLLSQPLMSIPSTTSSLPSENAGRPIQNSALPSASITSTSAAAESITPTVELNALCMKLGKKPMYKPVDPYSRMQSTYNYNMRGGAYPPRYFYPFPVPPLLYQVELSVGGQQFNGKGKTRQAAKHDAAAKALRILQNEPLPERLEVNGRESEEENLNKSEISQVFEIALKRNLPVNFEVARESGPPHMKNFVTKVSVGEFVGEGEGKSKKISKKNAAIAVLEELKKLPPLPAVERVKPRIKKKTKPIVKPQTSPEYGQGINPISRLAQIQQAKKEKEPEYTLLTERGLPRRREFVMQVKVGNHTAEGTGTNKKVAKRNAAENMLEILGFKVPQAQPTKPALKSEEKTPIKKPGDGRKVTFFEPGSGDENGTSNKEDEFRMPYLSHQQLPAGILPMVPEVAQAVGVSQGHHTKDFTRAAPNPAKATVTAMIARELLYGGTSPTAETILKNNISSGHVPHGPLTRPSEQLDYLSRVQGFQVEYKDFPKNNKNEFVSLINCSSQPPLISHGIGKDVESCHDMAALNILKLLSELDQQSTEMPRTGNGPMSVCGRC
notes: range 6-578; Prey from brain library; also called Staufen
B5: NAPA1 (Genbank ID: U39412) (other, human, UniProt P54920 1-295, looked up)
chain: MDNSGKEAEAMALLAEAERKVKNSQSFFSGLFGGSSKIEEACEIYARAANMFKMAKNWSAAGNAFCQAAQLHLQLQSKHDAATCFVDAGNAFKKADPQEAINCLMRAIEIYTDMGRFTIAAKHHISIAEIYETELVDIEKAIAHYEQSADYYKGEESNSSANKCLLKVAGYAALLEQYQKAIDIYEQVGTNAMDSPLLKYSAKDYFFKAALCHFCIDMLNAKLAVQKYEELFPAFSDSRECKLMKKLLEAHEEQNVDSYTESVKEYDSISRLDQWLTTMLLRIKKTIQGDEEDLR
notes: Full-length bait; Gal4-BD fusion
B6: FHOS (Genbank ID: AF113615) (other, human, UniProt Q9Y613 964-1164, looked up)
chain: TPQAAREVRIMQFCHTLREFALEYRTCRERVLQQQQKQATYRERNKTRGRMITETEKFSGVAGEAPSNPSVPVAVSSGPGRGDADSHASMKSLLTSRPEDTTHNRRSRGMVQSSSPIMPTVGPSTASPEEPPGSSLPSDTSDEIMDLLVQSVTKSSPRALAARERKRSRGNRKSLRRTLKSGLGDDLVQALGLSKGPGLEV
notes: range 964-1164; Prey from muscle library
B7: S100A1-1 (other, human, UniProt P23297 1-94, looked up)
chain: MGSELETAMETLINVFHAHSGKEGDKYKLSKKELKELLQTELSGFLDAQKDVDAVDKVMKELDENGDGEVDFQEYVVLVAALTVACNNFFWENS
notes: Full-length bait; also called full length S100A1
B8: S100A9 (Genbank ID: M26311) (other, human, UniProt P06702 1-114, looked up)
chain: MTCKMSQLERNIETIINTFHQYSVKLGHPDTLNQGEFKELVRKDLQNFLKKENKNEKVIEHIMEDLDTNADKQLSFEEFIMLMARLTWASHEKMHEGDEGPGHHHKPGLGEGTP
notes: range 1-114; Prey from liver and muscle libraries
B9: SYN4 (Genbank ID: u07158) (other, human, UniProt Q12846 158-297, looked up)
chain: RQLKITNAGMVSDEELEQMLDSGQSEVFVSNILKDTQVTRQALNEISARHSEIQQLERSIRELHDIFTFLATEVEMQGEMINRIEKNILSSADYVERGQEHVKTALENQKKARKKKVLIAICVSITVVLLAVIIGVTVVG
notes: Prey from brain and muscle libraries; also called Syntaxin 4
B10: Synphilin (Genbank ID: AF076929) (other, human, UniProt Q9Y6H5 335-660, looked up)
chain: PHLAADNLDKIHDENGNNLLHIAASQGHAECLQHLTSLMGEDCLNERNTEKLTPAGLAIKNGQLECVRWMVSETEAIAELSCSKDFPSLIHYAGCYGQEKILLWLLQFMQEQGISLDEVDQDGNSAVHVASQHGYLGCIQTLVEYGANVTMQNHAGEKPSQSAERQGHTLCSRYLVVVETCMSLASQVVKLTKQLKEQTVERVTLQNQLQQFLEAQKSEGKSLPSSPSSPSSPASRKSQWKSPDADDDSVAKSKPGVQEGIQVLGSLSASSRARPKAKDEDSDKILRQLLGKEISENVCTQEKLSLEFQDAQASSRNSKKIPLEKR
notes: range 335-~660; Prey from kidney library; end of the fragment approximate; also called Synphilin I; Synphilin 1

Assays:
[1] = biological target: the molecule itself; experiment: Y2H, baits tested against each other
[2] = biological target: B8; experiment: Y2H 1x1 mating, binder AD fusion, target BD fusion
[3] = biological target: T1, Fibrinogen (Genbank ID: M58569), S100A1 …; experiment: Y2H 1x1 mating, binder AD fusion, target BD fusion
[4] = biological target: T2, S100A6 (Genbank ID: M14300) (human, UniProt P06703 1-90); experiment: Y2H 1x1 mating, binder AD fusion, target BD fusion
[5] = biological target: the molecule itself; experiment: Y2H 1x1 mating, binder AD fusion, target BD fusion
[6] = biological target: B10; experiment: Y2H 1x1 mating, binder AD fusion, target BD fusion
[7] = biological target: T2, S100A6 (Genbank ID: M14300); experiment: Y2H 1x1 mating, binder AD fusion, target BD fusion; remark: listed apart in the source
[8] = biological target: the molecule itself; experiment: Y2H 1x1 mating, binder AD fusion, target BD fusion; remark: listed apart in the source
[9] = biological target: the molecule itself; experiment: Y2H 1x1 mating, binder AD fusion, target BD fusion; remark: listed apart in the source
[10] = biological target: B3; experiment: Y2H library screen, binder bait, target prey
[11] = biological target: B2; experiment: Y2H 1x1 mating, binder AD fusion, target BD fusion
[12] = biological target: B10; experiment: Y2H 1x1 mating, binder AD fusion, target BD fusion; remark: listed apart in the source
[13] = biological target: B6; experiment: Y2H 1x1 mating, binder AD fusion, target BD fusion
[14] = biological target: B3; experiment: Y2H 1x1 mating, binder AD fusion, target BD fusion
[15] = biological target: B5; experiment: Y2H library screen, binder bait, target prey

Binder: B1
binding result [1]: binds
binding result [2]: binds
binding result [3]: no binding
binding result [4]: binds

Binder: B2
binding result [5]: no binding
binding result [6]: no binding
binding result [7]: no binding

Binder: B3
binding result [8]: no binding

Binder: B4
binding result [9]: no binding

Binder: B5
binding result [10]: binds

Binder: B6
binding result [5]: no binding
binding result [6]: no binding
binding result [7]: no binding
binding result [11]: no binding

Binder: B7
binding result [12]: no binding

Binder: B8
binding result [13]: no binding
binding result [6]: no binding
binding result [11]: no binding

Binder: B9
binding result [8]: no binding
binding result [14]: no binding
binding result [15]: binds

Binder: B10
binding result [7]: no binding
